Columns and labels:
Orc1 = target: T1, Orc1 (Saccharomyces cerevisiae, UniProt P54784 1-914); experiment: cryo-EM structure; OCCM^Mcm2RA: 30 nM MH-ARS1-MH DNA, 60 nM ORC, 90 nM Cdc6, 60 nM MCM-Cdt1 (Mcm2 R676A), 3 mM ATP; 25 mM HEPES pH 7.6, 100 mM potassium chloride, 10 mM magnesium acetate, 1 mM DTT; 30 °C, 30 min; 3.3 Å consensus, 3.2 Å local refinements; conditions: both partners purified
T1 construct: Orc1, S. cerevisiae; Subunit of m1, written alone for the contacts seen in the structures; also called Orc1 subunit of ORC; source: S. cerevisiae strain ySD-ORC, purified as a subunit of ORC
T1 sequence: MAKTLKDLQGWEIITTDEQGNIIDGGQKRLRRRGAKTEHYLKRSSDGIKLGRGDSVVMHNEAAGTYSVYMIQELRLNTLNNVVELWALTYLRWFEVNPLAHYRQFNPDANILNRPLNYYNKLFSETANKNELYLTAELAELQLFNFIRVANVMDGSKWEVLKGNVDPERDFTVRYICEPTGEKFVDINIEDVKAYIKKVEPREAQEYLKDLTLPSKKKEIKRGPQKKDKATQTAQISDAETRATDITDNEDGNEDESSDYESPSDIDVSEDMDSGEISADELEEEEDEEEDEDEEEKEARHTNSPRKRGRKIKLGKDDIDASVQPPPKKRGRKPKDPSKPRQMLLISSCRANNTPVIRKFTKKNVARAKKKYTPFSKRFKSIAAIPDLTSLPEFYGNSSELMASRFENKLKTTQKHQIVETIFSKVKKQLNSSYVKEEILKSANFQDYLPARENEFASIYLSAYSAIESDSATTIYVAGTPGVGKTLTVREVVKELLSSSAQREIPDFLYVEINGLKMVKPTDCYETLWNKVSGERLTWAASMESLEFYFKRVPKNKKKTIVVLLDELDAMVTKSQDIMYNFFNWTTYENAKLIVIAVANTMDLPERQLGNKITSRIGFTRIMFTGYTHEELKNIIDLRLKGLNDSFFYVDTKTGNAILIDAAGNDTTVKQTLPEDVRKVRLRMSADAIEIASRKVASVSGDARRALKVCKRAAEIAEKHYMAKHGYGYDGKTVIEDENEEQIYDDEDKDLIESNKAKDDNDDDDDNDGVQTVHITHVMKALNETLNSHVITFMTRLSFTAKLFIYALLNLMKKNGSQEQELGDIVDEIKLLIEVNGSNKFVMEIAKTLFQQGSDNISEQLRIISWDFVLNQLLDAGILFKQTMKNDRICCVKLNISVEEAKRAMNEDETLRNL

Mcm4 = target: T2, Mcm4 (Saccharomyces cerevisiae, UniProt P30665 1-933); experiment: cryo-EM structure; OC1M^Mcm5RA: 30 nM MH-ARS1-MH DNA, 60 nM ORC, 90 nM Cdc6, 60 nM MCM-Cdt1 (Mcm5 R549A), 2 mM ATP; same buffer; 30 °C, 30 min; conformer 1 at 3.7 Å, conformer 2 at 3.4 Å (Orc1 ATPase domain seen only in conformer 1); conditions: both partners purified
T2 construct: Mcm4, S. cerevisiae; Subunit of m4 and m7, written alone for the contacts seen in the structures; also called Mcm4 subunit of MCM; source: S. cerevisiae strains yGC216 and yGC226, purified as a subunit of MCM-Cdt1
T2 sequence: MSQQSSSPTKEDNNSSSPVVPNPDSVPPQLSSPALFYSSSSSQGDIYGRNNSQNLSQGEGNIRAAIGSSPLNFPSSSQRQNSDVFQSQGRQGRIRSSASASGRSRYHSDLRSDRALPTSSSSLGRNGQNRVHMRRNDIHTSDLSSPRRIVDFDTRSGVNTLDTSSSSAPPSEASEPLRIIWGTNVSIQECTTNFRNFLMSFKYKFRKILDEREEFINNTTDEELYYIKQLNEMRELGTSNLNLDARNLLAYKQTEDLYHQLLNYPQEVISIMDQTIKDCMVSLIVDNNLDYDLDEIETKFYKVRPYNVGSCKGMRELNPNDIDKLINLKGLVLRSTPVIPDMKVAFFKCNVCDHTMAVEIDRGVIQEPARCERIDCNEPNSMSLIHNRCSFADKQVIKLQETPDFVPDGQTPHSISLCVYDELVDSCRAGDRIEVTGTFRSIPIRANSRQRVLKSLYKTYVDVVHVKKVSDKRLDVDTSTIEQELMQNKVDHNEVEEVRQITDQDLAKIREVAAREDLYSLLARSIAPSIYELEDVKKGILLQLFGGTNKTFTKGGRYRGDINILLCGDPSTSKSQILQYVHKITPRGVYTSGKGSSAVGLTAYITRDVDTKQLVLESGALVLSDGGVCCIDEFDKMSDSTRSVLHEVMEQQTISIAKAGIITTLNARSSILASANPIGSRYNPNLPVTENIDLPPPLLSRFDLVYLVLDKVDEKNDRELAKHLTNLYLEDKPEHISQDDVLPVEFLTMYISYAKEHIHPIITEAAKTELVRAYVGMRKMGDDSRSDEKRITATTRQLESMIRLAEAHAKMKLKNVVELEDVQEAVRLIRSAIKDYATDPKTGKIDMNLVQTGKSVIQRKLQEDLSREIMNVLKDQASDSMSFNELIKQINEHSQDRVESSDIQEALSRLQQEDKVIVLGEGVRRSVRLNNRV

B1: Mcm7 (natural protein, Saccharomyces cerevisiae)
chain: MSAALPSIQLPVDYNNLFNEITDFLVTFKQDTLSSDATRNENEDENLDAENIEQHLLEKGPKYMAMLQKVANRELNSVIIDLDDILQYQNEKFLQGTQADDLVSAIQQNANHFTELFCRAIDNNMPLPTKEIDYKDDVLDVILNQRRLRNERMLSDRTNEIRSENLMDTTMDPPSSMNDALREVVEDETELFPPNLTRRYFLYFKPLSQNCARRYRKKAISSKPLSVRQIKGDFLGQLITVRGIITRVSDVKPAVEVIAYTCDQCGYEVFQEVNSRTFTPLSECTSEECSQNQTKGQLFMSTRASKFSAFQECKIQELSQQVPVGHIPRSLNIHVNGTLVRSLSPGDIVDVTGIFLPAPYTGFKALKAGLLTETYLEAQFVRQHKKKFASFSLTSDVEERVMELITSGDVYNRLAKSIAPEIYGNLDVKKALLLLLVGGVDKRVGDGMKIRGDINVCLMGDPGVAKSQLLKAICKISPRGVYTTGKGSSGVGLTAAVMKDPVTDEMILEGGALVLADNGICCIDEFDKMDESDRTAIHEVMEQQTISISKAGINTTLNARTSILAAANPLYGRYNPRLSPLDNINLPAALLSRFDILFLMLDIPSRDDDEKLAEHVTYVHMHNKQPDLDFTPVEPSKMREYIAYAKTKRPVMSEAVNDYVVQAYIRLRQDSKREMDSKFSFGQATPRTLLGIIRLSQALAKLRLADMVDIDDVEEALRLVRVSKESLYQETNKSKEDESPTTKIFTIIKKMLQETGKNTLSYENIVKTVRLRGFTMLQLSNCIQEYSYLNVWHLINEGNTLKFVDDGTMDTDQEDSLVSTPKLAPQTTASANVSAQDSDIDLQDA
notes: Mcm7, S. cerevisiae; Subunit of m4 and m7, written alone for the contacts seen in the structures; also called Mcm7 subunit of MCM; source: S. cerevisiae strains yGC216 and yGC226, purified as a subunit of MCM-Cdt1
binding result (Orc1): binds
binding result (Mcm4): binds

— article PMC11748629, “Unidirectional MCM translocation away from ORC drives origin licensing” (Nature Communications, 2025)
